From patent US20210347873A1 (SHANGHAI PHARMAEXPLORER, published 2021)
Where two headings read alike, the source gives them in different places.

B1: c67A2E1D10 (antibody, V domains shown)
VH: EVQLQQSGAELVKPGASVKLSCTASGFNIKNYYMHWVKQRTEEGLEWIGRIDPEDGETKYAPKFQAKATITADTSSNTAYLQLSSLTSEDTAVYFCARKGYYGNYGAWFAYWGQGTLVTVSA
VL: DIQMTQSPASLSVSVGETVTITCRASEDLYSNLAWYQQKQGKSPQLLVYAATFLADGVPSRFSGSGSGTQYSLKINSLQSEDFGNYYCQHFWGTPPTFGGGTKLEIK
B2: c111D10D6G3 (antibody, V domains shown)
VH: QVQLQQPGAELVKPGASVKMSCKASGYTFTRHWITWVKQRPGQGLEWIGDIFPGSGSINYNEKFKSEATLTVEKSSSTAYMQLSSLTSEDSAVYYCARGDVDVWGTGTTVTVSS
VL: DIQMTQSPSSLSASLGERVSLTCRASQEIRGYLSWLQQKPNGTIKRLIYAASTLDSGVPKRFSATRSGSDFSLTISSLESEDFADYYCLQYASYPFTFGSGTKLEIK
B3: h8E7D9C7F5-1 (antibody, V domains shown)
VH: EVQLVQSGAEVKKPGASVKVSCKASGYTFTSYGISWVRQAPGQGLEWMGEIYPRSGNTYYNEKFKGRVTMTTDTSTSTAYMELRSLRSDDTAVYYCARSGPITTLVATDYGMDYWGQGTTVTVSS
VL: DIVMTQSPDSLAVSLGERATINCRASKSVSTSSYSYMHWYQQKPGQPPKLLIKFASNLESGVPDRFSGSGSGTDFTLTISSLQAEDVAVYYCQHSREFPYTFGGGTKVEIK
notes: Humanized antibody; also called humanized BLyS antibody h8E7D9C7F5 variant 1 (VH.1 / Vk.1)
B4: h97A3C2H4-9 (antibody, V domains shown)
VH: EVQLVESGGGLVQPGGSLRLSCAASGFTFSTYTMSWVRQAPGKRLEWVAYISYGGGSTSYPDTVKGRFTISRDNAKNSLYLQMNSLRAEDTAVYYCTRHVTVVENSMDYWGQGTTVTVSS
VL: DILLTQSPDFQSVTPKEKVTITCRASQSIGTSIHWYQQKTDQSPKLLIKYVSESFSGTPSRFSGSGSGTDFTLTINSLEAEDAATYYCQQTHSWPWTFGGGTKVEIK
notes: Humanized antibody; VH3-7/JH6 CDR-grafted with A93T, G44R; also called humanized BLyS antibody h97A3C2H4 variant 9 (VH.1b / Vk.1d)

Key:
biotinylated hBLyS-ECD [1] = target: T1, biotinylated hBLyS-ECD (human, UniProt Q9Y275 134-285, biotinylated with Biotin-X-X-NHS (molar ratio 7:1); sites not stated); experiment: ELISA on captured biotinylated hBLyS-ECD; antibody 0.534 nM
T1 construct: also called biotinylated immunogen; biotinylated hBLvS-ECD
T1 sequence (Q9Y275 134-285): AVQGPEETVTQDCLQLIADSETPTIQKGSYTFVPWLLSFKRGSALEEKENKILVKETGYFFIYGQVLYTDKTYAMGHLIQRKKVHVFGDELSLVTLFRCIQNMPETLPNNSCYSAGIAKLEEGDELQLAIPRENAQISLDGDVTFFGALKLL

biotinylated hBLyS-ECD [2] = target: T1, biotinylated hBLyS-ECD; experiment: ELISA on captured biotinylated hBLyS-ECD; antibody 0.00427 nM
[3] = target: T2, extracellular domain of human BLyS protein (hBLyS-ECD), His-tagged, Ala134-Leu285 (human, UniProt Q9Y275 134-285); experiment: cell-based or functional assay
T2 sequence (Q9Y275 134-285): as above

biotinylated hBLyS-ECD [4] = target: T1, biotinylated hBLyS-ECD; experiment: ELISA on captured biotinylated hBLyS-ECD; antibody 0 nM (background)
[5] = target: T2, extracellular domain of human BLyS …; experiment: SPR (Biacore), antibody captured by anti-human Fc, hBLyS-ECD as analyte
biotinylated hBLyS-ECD [6] = target: T1, biotinylated hBLyS-ECD; experiment: ELISA on captured biotinylated hBLyS-ECD; antibody 13.3 nM
biotinylated hBLyS-ECD [7] = target: T1, biotinylated hBLyS-ECD; experiment: ELISA on captured biotinylated hBLyS-ECD; antibody 0.0213 nM
biotinylated hBLyS-ECD [8] = target: T1, biotinylated hBLyS-ECD; experiment: ELISA on captured biotinylated hBLyS-ECD; antibody 0.107 nM
biotinylated hBLyS-ECD [9] = target: T1, biotinylated hBLyS-ECD; experiment: ELISA on captured biotinylated hBLyS-ECD; antibody 66.7 nM
biotinylated hBLyS-ECD [10] = target: T1, biotinylated hBLyS-ECD; experiment: ELISA on captured biotinylated hBLyS-ECD; antibody 2.67 nM
[11] = target: T2, extracellular domain of human BLyS …; experiment: cell-based or functional assay; remark: listed apart in the source
biotinylated hBLyS-ECD [12] = target: T1, biotinylated hBLyS-ECD; experiment: BAFF R-coated ELISA, biotinylated hBLyS-ECD bound in presence of antibody 0.16 nM
biotinylated hBLyS-ECD [13] = target: T1, biotinylated hBLyS-ECD; experiment: ELISA on captured biotinylated hBLyS-ECD; antibody 66.7 nM; remark: listed apart in the source
biotinylated hBLyS-ECD [14] = target: T1, biotinylated hBLyS-ECD; experiment: ELISA on captured biotinylated hBLyS-ECD; antibody 0.107 nM; remark: listed apart in the source
biotinylated hBLyS-ECD [15] = target: T1, biotinylated hBLyS-ECD; experiment: BAFF R-coated ELISA, biotinylated hBLyS-ECD bound in presence of antibody 0 nM
biotinylated hBLyS-ECD [16] = target: T1, biotinylated hBLyS-ECD; experiment: ELISA on captured biotinylated hBLyS-ECD; antibody 0 nM (background); remark: listed apart in the source
biotinylated hBLyS-ECD [17] = target: T1, biotinylated hBLyS-ECD; experiment: ELISA on captured biotinylated hBLyS-ECD; antibody 0.0213 nM; remark: listed apart in the source
biotinylated hBLyS-ECD [18] = target: T1, biotinylated hBLyS-ECD; experiment: ELISA on captured biotinylated hBLyS-ECD; antibody 2.67 nM; remark: listed apart in the source
biotinylated hBLyS-ECD [19] = target: T1, biotinylated hBLyS-ECD; experiment: BAFF R-coated ELISA, biotinylated hBLyS-ECD bound in presence of antibody 20 nM
biotinylated hBLyS-ECD [20] = target: T1, biotinylated hBLyS-ECD; experiment: BAFF R-coated ELISA, biotinylated hBLyS-ECD bound in presence of antibody 0.0064 nM
biotinylated hBLyS-ECD [21] = target: T1, biotinylated hBLyS-ECD; experiment: BAFF R-coated ELISA, biotinylated hBLyS-ECD bound in presence of antibody 4 nM
[22] = target: T2, extracellular domain of human BLyS …; experiment: SPR (Biacore), antibody captured by anti-human Fc, hBLyS-ECD as analyte; remark: listed apart in the source
Description: Affinity constants were determined using a Biacore X100 instrument (purchased from GE Healthcare). Detailed operations and methods referred to the instrument manuals and detailed methods provided by manufacturers, specifically: determining affinity constant using a CM5 chip (Sensor Chip CM5, purchased from GE Healthcare). […] Then 1 M ethanolamine was injected in chip to block the remaining activation sites. After the antibody to be tested (i.e., the human BLyS antibody prepared by Embodiment 2) was captured by chip, 7 different gradient of immunogen dilutions (i.e., hBLyS-ECD) prepared by Embodiment 1 were injected and the binding and dissociation of antigen with antibody was detected by a Biacore instrument. The dissociation constant and binding constant were then fitted by Biacore X100 Evaluation Software 2.0, while the affinity constant was the ratio of dissociation constant to binding constant.
The binding and dissociation between antibody and antigen was detected by Biacore.

biotinylated hBLyS-ECD [23] = target: T1, biotinylated hBLyS-ECD; experiment: ELISA on captured biotinylated hBLyS-ECD; antibody 13.3 nM; remark: listed apart in the source
biotinylated hBLyS-ECD [24] = target: T1, biotinylated hBLyS-ECD; experiment: ELISA on captured biotinylated hBLyS-ECD; antibody 0.534 nM; remark: listed apart in the source
biotinylated hBLyS-ECD [25] = target: T1, biotinylated hBLyS-ECD; experiment: BAFF R-coated ELISA, biotinylated hBLyS-ECD bound in presence of antibody 0.032 nM
biotinylated hBLyS-ECD [26] = target: T1, biotinylated hBLyS-ECD; experiment: BAFF R-coated ELISA, biotinylated hBLyS-ECD bound in presence of antibody 100 nM
biotinylated hBLyS-ECD [27] = target: T1, biotinylated hBLyS-ECD; experiment: BAFF R-coated ELISA, biotinylated hBLyS-ECD bound in presence of antibody 0.8 nM
biotinylated hBLyS-ECD [28] = target: T1, biotinylated hBLyS-ECD; experiment: ELISA on captured biotinylated hBLyS-ECD; antibody 0.00427 nM; remark: listed apart in the source

Binder	OD450 nm (biotinylated hBLyS-ECD [1])	OD450 nm (biotinylated hBLyS-ECD [2])	OD450 nm (biotinylated hBLyS-ECD [4])	Kd [5]	koff [5]	kon [5]	OD450 nm (biotinylated hBLyS-ECD [6])	OD450 nm (biotinylated hBLyS-ECD [7])	OD450 nm (biotinylated hBLyS-ECD [8])	OD450 nm (biotinylated hBLyS-ECD [9])	OD450 nm (biotinylated hBLyS-ECD [10])	OD450 nm (biotinylated hBLyS-ECD [12])	OD450 nm (biotinylated hBLyS-ECD [13])	OD450 nm (biotinylated hBLyS-ECD [14])	OD450 nm (biotinylated hBLyS-ECD [15])	OD450 nm (biotinylated hBLyS-ECD [16])	OD450 nm (biotinylated hBLyS-ECD [17])	OD450 nm (biotinylated hBLyS-ECD [18])	OD450 nm (biotinylated hBLyS-ECD [19])	OD450 nm (biotinylated hBLyS-ECD [20])	further results
B1	2.73 OD450 nm	0.143 OD450 nm	0.0848 OD450 nm	4.99 nM	0.000159 s⁻¹	32000 M⁻¹ s⁻¹	3.24 OD450 nm	0.523 OD450 nm	1.58 OD450 nm	3.19 OD450 nm	2.94 OD450 nm	–	–	–	–	–	–	–	–	–	OD450 nm (as headed), mouse B lymphocyte proliferation; antibody 0 nM [3]: 4060; OD450 nm (as headed), mouse B lymphocyte proliferation; antibody 0.000256 nM [3]: 4720; OD450 nm (as headed), mouse B lymphocyte proliferation; antibody 0.00128 nM [3]: 4810; OD450 nm (as headed), mouse B lymphocyte proliferation; antibody 0.0064 nM [3]: 5170; OD450 nm (as headed), mouse B lymphocyte proliferation; antibody 0.032 nM [3]: 4340; OD450 nm (as headed), mouse B lymphocyte proliferation; antibody 0.16 nM [3]: 3900; OD450 nm (as headed), mouse B lymphocyte proliferation; antibody 0.8 nM [3]: 3970; OD450 nm (as headed), mouse B lymphocyte proliferation; antibody 4 nM [3]: 3500; OD450 nm (as headed), mouse B lymphocyte proliferation; antibody 20 nM [3]: 2610; OD450 nm (as headed), mouse B lymphocyte proliferation; antibody 100 nM [3]: 1100
B2	3.16 OD450 nm	0.222 OD450 nm	0.105 OD450 nm	0.297 nM	2.98e-05 s⁻¹	100000 M⁻¹ s⁻¹	3.39 OD450 nm	0.747 OD450 nm	2.12 OD450 nm	3.43 OD450 nm	3.4 OD450 nm	–	–	–	–	–	–	–	–	–	Proportion of B lymphocytes in splenocytes (%), in vivo in mice [11]: 33.2%
B3	–	–	–	–	–	–	–	–	–	–	–	1.78 OD450 nm	2.3 OD450 nm	1.35 OD450 nm	2.05 OD450 nm	0.129 OD450 nm	0.499 OD450 nm	2.18 OD450 nm	0.721 OD450 nm	1.98 OD450 nm	OD450 nm (biotinylated hBLyS-ECD [21]): 1.11 OD450 nm; Kd [22]: 4.33 nM; koff [22]: 0.000942 s⁻¹; kon [22]: 218000 M⁻¹ s⁻¹; OD450 nm (biotinylated hBLyS-ECD [23]): 2.2 OD450 nm; OD450 nm (biotinylated hBLyS-ECD [24]): 1.88 OD450 nm; OD450 nm (biotinylated hBLyS-ECD [25]): 1.87 OD450 nm; OD450 nm (biotinylated hBLyS-ECD [26]): 0.45 OD450 nm; OD450 nm (biotinylated hBLyS-ECD [27]): 1.54 OD450 nm; OD450 nm (biotinylated hBLyS-ECD [28]): 0.195 OD450 nm
B4	–	–	–	–	–	–	–	–	–	–	–	1.81 OD450 nm	2.37 OD450 nm	1.02 OD450 nm	1.94 OD450 nm	0.198 OD450 nm	0.372 OD450 nm	2.24 OD450 nm	0.748 OD450 nm	1.96 OD450 nm	OD450 nm (biotinylated hBLyS-ECD [21]): 1.13 OD450 nm; Kd [22]: 1.88 nM; koff [22]: 0.000216 s⁻¹; kon [22]: 115000 M⁻¹ s⁻¹; OD450 nm (biotinylated hBLyS-ECD [23]): 2.27 OD450 nm; OD450 nm (biotinylated hBLyS-ECD [24]): 1.88 OD450 nm; OD450 nm (biotinylated hBLyS-ECD [25]): 1.98 OD450 nm; OD450 nm (biotinylated hBLyS-ECD [26]): 0.506 OD450 nm; OD450 nm (biotinylated hBLyS-ECD [27]): 1.56 OD450 nm; OD450 nm (biotinylated hBLyS-ECD [28]): 0.179 OD450 nm
